This note sets out measurements from the supplement of paper PMC12338614.

± gives the uncertainty stated by the source.

B1: library; numbered along this chain (parent)
chain: MEVVDPQQLGMFTEGELMSVGMDTFIHRIDSTEVIYQPRRKRAKLIGKYLMGDLLGEGSYGKVKEVLDSETLCRRAVKILKKKKLRRIPNGEANVKKEIQLLRRLRHKNVIQLVDVLYNEEKQKMYMVMEYCVCGMQEMLDSVPEKRFPVCQAHGYFCQLIDGLEYLHSQGIVHKDIKPGNLLLTTGGTLKISDLGVAEALHPFAADDTCRTSQGSPAFQPPEIANGLDTFSGFKVDIWSAGVTLYNITTGLYPFEGDNIYKLFENIGKGSYAIPGDCGPPLSDLLKGMLEYEPAKRFSIRQIRQHSWFRKKHPPAEAPVPIPPSPDTKDRWRSMTVVPYLEDLHGADEDEDLFDIEDDIIYTQDFTVPGQVPEEEASHNGQRRGLPKAVCMNGTEAAQLSTKSRAEGRAPNPARKACSASSKIRRLSACKQQ

The variants in the data set derive from B1. The data set can be described thus: STK11 functional score (HeLa growth suppression), rescaled enrichment; synonymous median = 1, nonsense median = 0 (normalised score). As to conditions: with HeLa; variant type: missense. Put shortly:
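The values are functional scores: wild-type-corrected log ratios of post- versus pre-selection abundance, rescaled to synonymous and nonsense medians, merged over codons and replicate transfections, and carrying bootstrapped error. They derive from codon-randomised (POPCode), codon-optimised STK11 libraries that Bxb1 integrated at an AAVS1 landing pad in HeLa, with three transfections for each of three regions. Sequencing of tiled gDNA amplicons ran on NextSeq, at ~2 million reads per tile.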
Regarding MEVVDPQQLGMFTEGELMSVGMDTFIHRIDSTEVIYQPRRKRAKLIGKYLMGDLLGEGSYGKVKEVLDSETLCRRAVKILKKKKLRRIPNGEANVKKEIQLLRRLRHKNVIQLVDVLYNEEKQKMYMVMEYCVCGMQEMLDSVPEKRFPVCQAHGYFCQLIDGLEYLHSQGIVHKDIKPGNLLLTTGGTLKISDLGVAEALHPFAADDTCRTSQGSPAFQPPEIANGLDTFSGFKVDIWSAGVTLYNITTGLYPFEGDNIYKLFENIGKGSYAIPGDCGPPLSDLLKGMLEYEPAKRFSIRQIRQHSWFRKKHPPAEAPVPIPPSPDTKDRWRSMTVVPYLEDLHGADEDEDLFDIEDDIIYTQDFTVPGQVPEEEASHNKQRRGLPKAVCMNGTEAAQLSTKSRAEGRAPNPARKACSASSKIRRLSACKQQ [G381K], the STK11 functional score worked out at 1.59 ± 0.29. As to MEVVDPQQLGMFTEGELMSVGMDTFIHRIDSTEVIYQPRRKRAKLIGKYLMGDLLGEGSYGKVKEVLDSETLCRRAVKILKKKKLRRIPNGEANVKKEIQLLRRLRHKNVIQLVDVLYNEEKQKMYMVMEYCVCGMQEMLDSVPEKRFPVCQAHGYFCQLIDGLEYLHSQGIVHKDIKPGNLLLTTGGTLKISDLGVAEALHPFAADDTCRTSQGSPAFQPPEIANGLDTFSGFKVDIWSAGVTLYNITTGLYPFEGDNIYKLFENIGKGSYAIPGDCGPPLSDLLKGMLEYEPAKRFSIRQIRQHSWFRKKHPPAEAPVPIPPSPDTKDRWRSMTVVPYLEDLHGADEDEDLFDIEDDIIYTQDFTVPGQVPEEEASHNFQRRGLPKAVCMNGTEAAQLSTKSRAEGRAPNPARKACSASSKIRRLSACKQQ [G381F], the STK11 functional score came to 1.13 ± 0.42.

As for MEVVDPQQLGMFTEGELMSVGMDTFIHRIDSTEVIYQPRRKRAKLIGKYLMGDLLGEGSYGKVKEVLDSETLCRRAVKILKKKKLRRIPNGEANVKKEIQLLRRLRHKNVIQLVDVLYNEEKQKMYMVMEYCVCGMQEMLDSVPEKRFPVCQAHGYFCQLIDGLEYLHSQGIVHKDIKPGNLLLTTGGTLKISDLGVAEALHPFAADDTCRTSQGSPAFQPPEIANGLDTFSGFKVDIWSAGVTLYNITTGLYPFEGDNIYKLFENIGKGSYAIPGDCGPPLSDLLKGMLEYEPAKRFSIRQIRQHSWFRKKHPPAEAPVPIPPSPDTKDRWRSMTVVPYLEDLHGADEDEDLFDIEDDIIYTQDFTVPGQVPEEEASHNLQRRGLPKAVCMNGTEAAQLSTKSRAEGRAPNPARKACSASSKIRRLSACKQQ [G381L], the STK11 functional score was 1.24 ± 0.15. Consider MEVVDPQQLGMFTEGELMSVGMDTFIHRIDSTEVIYQPRRKRAKLIGKYLMGDLLGEGSYGKVKEVLDSETLCRRAVKILKKKKLRRIPNGEANVKKEIQLLRRLRHKNVIQLVDVLYNEEKQKMYMVMEYCVCGMQEMLDSVPEKRFPVCQAHGYFCQLIDGLEYLHSQGIVHKDIKPGNLLLTTGGTLKISDLGVAEALHPFAADDTCRTSQGSPAFQPPEIANGLDTFSGFKVDIWSAGVTLYNITTGLYPFEGDNIYKLFENIGKGSYAIPGDCGPPLSDLLKGMLEYEPAKRFSIRQIRQHSWFRKKHPPAEAPVPIPPSPDTKDRWRSMTVVPYLEDLHGADEDEDLFDIEDDIIYTQDFTVPGQVPEEEASHNAQRRGLPKAVCMNGTEAAQLSTKSRAEGRAPNPARKACSASSKIRRLSACKQQ [G381A], for which the STK11 functional score stood at 1.09 ± 0.4. Turning to MEVVDPQQLGMFTEGELMSVGMDTFIHRIDSTEVIYQPRRKRAKLIGKYLMGDLLGEGSYGKVKEVLDSETLCRRAVKILKKKKLRRIPNGEANVKKEIQLLRRLRHKNVIQLVDVLYNEEKQKMYMVMEYCVCGMQEMLDSVPEKRFPVCQAHGYFCQLIDGLEYLHSQGIVHKDIKPGNLLLTTGGTLKISDLGVAEALHPFAADDTCRTSQGSPAFQPPEIANGLDTFSGFKVDIWSAGVTLYNITTGLYPFEGDNIYKLFENIGKGSYAIPGDCGPPLSDLLKGMLEYEPAKRFSIRQIRQHSWFRKKHPPAEAPVPIPPSPDTKDRWRSMTVVPYLEDLHGADEDEDLFDIEDDIIYTQDFTVPGQVPEEEASHNHQRRGLPKAVCMNGTEAAQLSTKSRAEGRAPNPARKACSASSKIRRLSACKQQ [G381H], the STK11 functional score was 1.6 ± 0.29. MEVVDPQQLGMFTEGELMSVGMDTFIHRIDSTEVIYQPRRKRAKLIGKYLMGDLLGEGSYGKVKEVLDSETLCRRAVKILKKKKLRRIPNGEANVKKEIQLLRRLRHKNVIQLVDVLYNEEKQKMYMVMEYCVCGMQEMLDSVPEKRFPVCQAHGYFCQLIDGLEYLHSQGIVHKDIKPGNLLLTTGGTLKISDLGVAEALHPFAADDTCRTSQGSPAFQPPEIANGLDTFSGFKVDIWSAGVTLYNITTGLYPFEGDNIYKLFENIGKGSYAIPGDCGPPLSDLLKGMLEYEPAKRFSIRQIRQHSWFRKKHPPAEAPVPIPPSPDTKDRWRSMTVVPYLEDLHGADEDEDLFDIEDDIIYTQDFTVPGQVPEEEASHNRQRRGLPKAVCMNGTEAAQLSTKSRAEGRAPNPARKACSASSKIRRLSACKQQ [G381R]: the STK11 functional score turned out to be 1.48 ± 0.16. For MEVVDPQQLGMFTEGELMSVGMDTFIHRIDSTEVIYQPRRKRAKLIGKYLMGDLLGEGSYGKVKEVLDSETLCRRAVKILKKKKLRRIPNGEANVKKEIQLLRRLRHKNVIQLVDVLYNEEKQKMYMVMEYCVCGMQEMLDSVPEKRFPVCQAHGYFCQLIDGLEYLHSQGIVHKDIKPGNLLLTTGGTLKISDLGVAEALHPFAADDTCRTSQGSPAFQPPEIANGLDTFSGFKVDIWSAGVTLYNITTGLYPFEGDNIYKLFENIGKGSYAIPGDCGPPLSDLLKGMLEYEPAKRFSIRQIRQHSWFRKKHPPAEAPVPIPPSPDTKDRWRSMTVVPYLEDLHGADEDEDLFDIEDDIIYTQDFTVPGQVPEEEASHNPQRRGLPKAVCMNGTEAAQLSTKSRAEGRAPNPARKACSASSKIRRLSACKQQ [G381P], the STK11 functional score is 1.61 ± 0.28. In the case of MEVVDPQQLGMFTEGELMSVGMDTFIHRIDSTEVIYQPRRKRAKLIGKYLMGDLLGEGSYGKVKEVLDSETLCRRAVKILKKKKLRRIPNGEANVKKEIQLLRRLRHKNVIQLVDVLYNEEKQKMYMVMEYCVCGMQEMLDSVPEKRFPVCQAHGYFCQLIDGLEYLHSQGIVHKDIKPGNLLLTTGGTLKISDLGVAEALHPFAADDTCRTSQGSPAFQPPEIANGLDTFSGFKVDIWSAGVTLYNITTGLYPFEGDNIYKLFENIGKGSYAIPGDCGPPLSDLLKGMLEYEPAKRFSIRQIRQHSWFRKKHPPAEAPVPIPPSPDTKDRWRSMTVVPYLEDLHGADEDEDLFDIEDDIIYTQDFTVPGQVPEEEASHNCQRRGLPKAVCMNGTEAAQLSTKSRAEGRAPNPARKACSASSKIRRLSACKQQ [G381C] it was 1.1 ± 0.44; in that of MEVVDPQQLGMFTEGELMSVGMDTFIHRIDSTEVIYQPRRKRAKLIGKYLMGDLLGEGSYGKVKEVLDSETLCRRAVKILKKKKLRRIPNGEANVKKEIQLLRRLRHKNVIQLVDVLYNEEKQKMYMVMEYCVCGMQEMLDSVPEKRFPVCQAHGYFCQLIDGLEYLHSQGIVHKDIKPGNLLLTTGGTLKISDLGVAEALHPFAADDTCRTSQGSPAFQPPEIANGLDTFSGFKVDIWSAGVTLYNITTGLYPFEGDNIYKLFENIGKGSYAIPGDCGPPLSDLLKGMLEYEPAKRFSIRQIRQHSWFRKKHPPAEAPVPIPPSPDTKDRWRSMTVVPYLEDLHGADEDEDLFDIEDDIIYTQDFTVPGQVPEEEASHNDQRRGLPKAVCMNGTEAAQLSTKSRAEGRAPNPARKACSASSKIRRLSACKQQ [G381D], 1.57 ± 0.29.

In the case of MEVVDPQQLGMFTEGELMSVGMDTFIHRIDSTEVIYQPRRKRAKLIGKYLMGDLLGEGSYGKVKEVLDSETLCRRAVKILKKKKLRRIPNGEANVKKEIQLLRRLRHKNVIQLVDVLYNEEKQKMYMVMEYCVCGMQEMLDSVPEKRFPVCQAHGYFCQLIDGLEYLHSQGIVHKDIKPGNLLLTTGGTLKISDLGVAEALHPFAADDTCRTSQGSPAFQPPEIANGLDTFSGFKVDIWSAGVTLYNITTGLYPFEGDNIYKLFENIGKGSYAIPGDCGPPLSDLLKGMLEYEPAKRFSIRQIRQHSWFRKKHPPAEAPVPIPPSPDTKDRWRSMTVVPYLEDLHGADEDEDLFDIEDDIIYTQDFTVPGQVPEEEASHNIQRRGLPKAVCMNGTEAAQLSTKSRAEGRAPNPARKACSASSKIRRLSACKQQ [G381I], the STK11 functional score came out at 1.57 ± 0.22. As to MEVVDPQQLGMFTEGELMSVGMDTFIHRIDSTEVIYQPRRKRAKLIGKYLMGDLLGEGSYGKVKEVLDSETLCRRAVKILKKKKLRRIPNGEANVKKEIQLLRRLRHKNVIQLVDVLYNEEKQKMYMVMEYCVCGMQEMLDSVPEKRFPVCQAHGYFCQLIDGLEYLHSQGIVHKDIKPGNLLLTTGGTLKISDLGVAEALHPFAADDTCRTSQGSPAFQPPEIANGLDTFSGFKVDIWSAGVTLYNITTGLYPFEGDNIYKLFENIGKGSYAIPGDCGPPLSDLLKGMLEYEPAKRFSIRQIRQHSWFRKKHPPAEAPVPIPPSPDTKDRWRSMTVVPYLEDLHGADEDEDLFDIEDDIIYTQDFTVPGQVPEEEASHNMQRRGLPKAVCMNGTEAAQLSTKSRAEGRAPNPARKACSASSKIRRLSACKQQ [G381M], the STK11 functional score was 1.57 ± 0.29. In the case of MEVVDPQQLGMFTEGELMSVGMDTFIHRIDSTEVIYQPRRKRAKLIGKYLMGDLLGEGSYGKVKEVLDSETLCRRAVKILKKKKLRRIPNGEANVKKEIQLLRRLRHKNVIQLVDVLYNEEKQKMYMVMEYCVCGMQEMLDSVPEKRFPVCQAHGYFCQLIDGLEYLHSQGIVHKDIKPGNLLLTTGGTLKISDLGVAEALHPFAADDTCRTSQGSPAFQPPEIANGLDTFSGFKVDIWSAGVTLYNITTGLYPFEGDNIYKLFENIGKGSYAIPGDCGPPLSDLLKGMLEYEPAKRFSIRQIRQHSWFRKKHPPAEAPVPIPPSPDTKDRWRSMTVVPYLEDLHGADEDEDLFDIEDDIIYTQDFTVPGQVPEEEASHWGQRRGLPKAVCMNGTEAAQLSTKSRAEGRAPNPARKACSASSKIRRLSACKQQ [N380W] it was 1.04 ± 0.73. In the case of MEVVDPQQLGMFTEGELMSVGMDTFIHRIDSTEVIYQPRRKRAKLIGKYLMGDLLGEGSYGKVKEVLDSETLCRRAVKILKKKKLRRIPNGEANVKKEIQLLRRLRHKNVIQLVDVLYNEEKQKMYMVMEYCVCGMQEMLDSVPEKRFPVCQAHGYFCQLIDGLEYLHSQGIVHKDIKPGNLLLTTGGTLKISDLGVAEALHPFAADDTCRTSQGSPAFQPPEIANGLDTFSGFKVDIWSAGVTLYNITTGLYPFEGDNIYKLFENIGKGSYAIPGDCGPPLSDLLKGMLEYEPAKRFSIRQIRQHSWFRKKHPPAEAPVPIPPSPDTKDRWRSMTVVPYLEDLHGADEDEDLFDIEDDIIYTQDFTVPGQVPEEEASHYGQRRGLPKAVCMNGTEAAQLSTKSRAEGRAPNPARKACSASSKIRRLSACKQQ [N380Y] it was 1.14 ± 0.4; in that of MEVVDPQQLGMFTEGELMSVGMDTFIHRIDSTEVIYQPRRKRAKLIGKYLMGDLLGEGSYGKVKEVLDSETLCRRAVKILKKKKLRRIPNGEANVKKEIQLLRRLRHKNVIQLVDVLYNEEKQKMYMVMEYCVCGMQEMLDSVPEKRFPVCQAHGYFCQLIDGLEYLHSQGIVHKDIKPGNLLLTTGGTLKISDLGVAEALHPFAADDTCRTSQGSPAFQPPEIANGLDTFSGFKVDIWSAGVTLYNITTGLYPFEGDNIYKLFENIGKGSYAIPGDCGPPLSDLLKGMLEYEPAKRFSIRQIRQHSWFRKKHPPAEAPVPIPPSPDTKDRWRSMTVVPYLEDLHGADEDEDLFDIEDDIIYTQDFTVPGQVPEEEASHVGQRRGLPKAVCMNGTEAAQLSTKSRAEGRAPNPARKACSASSKIRRLSACKQQ [N380V], 1.12 ± 0.27.
